B1: Gem-associated protein 2 (Homo sapiens), O14893 (parent)
chain: MRRAELAGLKTMAWVPAESAVEELMPRLLPVEPCDLTEGFDPSVPPRTPQEYLRRVQIEAAQCPDVVVAQIDPKKLKRKQSVNISLSGCQPAPEGYSPTLQWQQQQVAQFSTVRQNVNKHRSHWKSQQLDSNVTMPKSEDEEGWKKFCLGEKLCADGAVGPATNESPGIDYVQIGFPPLLSIVSRMNQATVTSVLEYLSNWFGERDFTPELGRWLYALLACLEKPLLPEAHSLIRQLARRCSEVRLLVDSKDDERVPALNLLICLVSRYFDQRDLADEPS

Variants of: B1
Details: with smn_human SMN1, Q16637
smn_human SMN1, Q16637, sequence (Q16637 whole entry): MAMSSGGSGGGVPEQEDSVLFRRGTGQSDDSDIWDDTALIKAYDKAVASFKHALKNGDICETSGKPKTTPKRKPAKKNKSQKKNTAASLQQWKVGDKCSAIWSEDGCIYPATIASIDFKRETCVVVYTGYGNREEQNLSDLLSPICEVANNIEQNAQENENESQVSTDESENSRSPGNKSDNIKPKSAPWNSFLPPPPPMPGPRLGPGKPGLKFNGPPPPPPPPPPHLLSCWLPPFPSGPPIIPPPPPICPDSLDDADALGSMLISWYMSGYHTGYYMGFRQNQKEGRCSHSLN

| Variant | effect of a mutation on the interaction |
| --- | --- |
| R213D | disrupting interaction |
